Test results reported in the nanobody polyreactivity screen of Harvey et al. (2022).

Assay: yeast display, Sf9 membrane polyspecificity reagent, FACS + sequencing; frameworks hold sequencing errors
Procedure, shortened: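 Galactose-induced (36–48 hours) yeast carrying a synthetic nanobody display library were exposed to 10% biotinylated, detergent-solubilized Sf9 membrane reagent at 4 °C for 1 hour. FACS followed streptavidin microbead enrichment, using low and high (top ~1%) gates for expression (anti-HA) and reagent binding (streptavidin). Colony PCR, MiSeq 2 × 250 sequencing and CDR-length filtering followed. Labels for polyreactivity reflect the gate of origin.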

Sequence	polyreactivity (PSR sort gate)
QVQLVESGGVLVQAGGSLRLSCAASGLTFGGNAKGWYRPAPGKERELVAAISWSDDTTDYADSVKGRFTISRDNAKNTVYLQMNSLKPEDTAVYYCAARLPFEYVDYWGQGTQVTVSS	low polyreactivity
QVQLQESVGGLVQADGSLRLSCAASGTIFTQSYMGWYRQAPGKEREFVAGISNGTKTNYGDSVKGRFTISRDNAKNTVYLQMHRLKLEDTAVYYCAVKGFYVDVLAYWGQGTHVTVSS	high polyreactivity
QVQLVESAGGLVQAGGSLRLSCAASGLIIYYYAMGWYRPAPGKERELVAAISGSSGASTYYADSVKGRFTISRDNAKNTVYLQMNSLKPEDTAVYYCNADWARLWIRSTEFDYWGQGTQVTVSS	low polyreactivity
QVQLVESGGGLVQAGGSLSLSCAASGLTSSENAMGWYRQAHGKERELVAAINVSGGSTYYADSVKGRFTISRDNAKNTVYLQMNSLKPEDTAVYYCAADNPYAYARSSWYEYNYWGQGTQVTVSS	high polyreactivity
QVQLVESGGGLVQAGGSLRLSCAASGRTIGPYAMGWYRQAPGKERELVAAISGGGSTNYADSVKGRFTISRDNAKNTVSLQMKSLKPEDTAVYYCNTEYPISGEEEYWGQGTQVTVSS	low polyreactivity
QVQLVESGGGLVQAGGSLRLSCAASGSIFDYNAMGWYRQAPGKERELVAAISSGGSTYYADSVKGRFTISRDNAKNTVYLQMNSLKPEDTAVYYCAVKFWYHIYDYWGQGTQVTVSS	low polyreactivity
QVQLVESGGGLVQAGGSLRLSCAASGSTFEDYAMGGYRQAPGKERELVAAISHIGGSTYYADSVKGRFTISRDNAKNTVYLQMNSLKPEDTAVYYCAKGGFSSKFDFWGQGTQVTVSS	low polyreactivity
QVQLVESGGGLVQAGGSLRLSCAASGRTFVKNAMGWYIQAPGKERELVAAISYRGGSTYYADSVKGRFTISRDNAKNTVYLQMNSLKPEDTAVYYCAAQYLYYRYGGFGYWGQGTQVTVSS	high polyreactivity
QVQLVESGGGLVQAGGSLRLSCAASGLILHKYAMGWYRQAPGKERELVASINSGANTNYADSVKGRFTISRDNAKNTVYLQMNSLKPEDTAVYYCNADPGFRDYYWGQGTQVNVSS	low polyreactivity
QVQLVESGGGLVQAGGSIRLSCAASGSIVVSYAMGWYRQAPGKERELVAAITVSGGSTYYADSVKGRFTISRDNAKNTVYLQMNSLKPEDTAVYYCAADSWDDWVVEFYYWGQGTQVNVSS	low polyreactivity
QVQLVESGGGVVQAGGSLRLSCAASGSIFQSYAMGWYRQAPGKERELVAAISYSGDGPFYADSVKGRFTISRDNAKKTVYLQMNSLKPEDTAVYYCAASSTGYGGSTYYYWGQGTQVTVSS	low polyreactivity
QVQLVESGGGLVQAGGSLRLSCDASGSIFDPYAMGWYRQAPGKERELVAGISFSGGRTYYADSVKGRFTISRDNAKNTVYLQMNSLKPEDTAVYYCKKLLTQGAYPYYYWGQGTQVTVSS	high polyreactivity
QVQLVDSGGGLVQAGGSLRLSCAASGGLFIVNDMGWYIQAPGKEMELVAAITSGGGKNYADSVKGRFTISRDNAKNTVYLQMNSLKPEVTAVYYCARDTYRQIVSNESYGFWGHGTQVTVSS	low polyreactivity
QVQLVESGGGLVQAGGSLRLSCAASGRIFYSYAMGWYRQAPGKERELVATITNGGSTNYADSVKGRFTMSRDNAKNTVYLQMNSLKPEDTAVYYCAKRSFRYASALVRYPPGYYWGQGTQVTVSS	high polyreactivity
QVQLVESGGGLFQAGGSLRLSCAASGSIFRAYAMVWYRQAPGKERELVAAITRGGSTNYADSVKGRFTISRDNAKNTVYLQMNSLKPEDTAVYYCAAQNYWYYPRRFDYWGQGTQVTVSS	high polyreactivity
QVQLIESGGGLVQAGGSLRLSCAASGSTFYGNAMGWYRQAPGKEREFVAAITGSGDSTDYADSVKGRFTISRDNAKNTVYLQMNSLIPEDTAVYYCNAVGYTPSKPSKFDYWGQGTQVTVSS	low polyreactivity
QVQLVESGGGLVQAGGSLRLSCAASGRIFQGNAMGWYRQAPGKERELVAAIDWSGGGSTYADSVKGRFTISRDNAKNTVYLQMNSLKPEDTAVYYCARDVVWGEDYWGQGTQVTVSS	low polyreactivity
QVQLVESGGGLVQAGGSLRLSCAASGSTFGYNTMGWYRQAPGKERELVASITGRGGSTYYADSVKGRFTSSRDNAKNTVYLQMNSLKPEDTAVYYCAAAWKAYRRYGYWGQGTQVTVSS	high polyreactivity
QVQLVESGGGLVQAVGSHRLSSAASGFIFDYNAMGWYRQEPVKVRELVAAISVSDDSTYYADSVKGRFTISRDNAKNTVYLQLNSLKPEVPAGYYCAAEWWDVIAPYDYWGLGTQVTVSS	low polyreactivity
QVQLVESGGGLVQAGGSLRLSCAASGSICGKNGMGWYRQAPGKERELVAAITSGGGNTYYADSVKGRFTISRDNAKNTVYLQMNSLKPEDTAVDYCAKGYRAYYWGFNYWGQGTQVTVSS	high polyreactivity
QVQLVESGRGIVQAGGSLRLSCAASGSIFLHNAMGWYRQAPGKETELVAAITGSGGYTYYADSVKGRFTISRDNPKNTVYIQMNSRQPEDTAVYYCAACSRSRYYRYVYYQYVTMDYWGQGTQETVSS	high polyreactivity
QVQLVESGGGLVQAGGSLRLSCAASGSIFPAYAMGWYRQAPGKERELVAASTDRGGSTSYADSVKGRFTISRDNAKNTVYLHKNSLKPEDT	low polyreactivity

Sequence	polyreactivity (PSR sort gate)
QVQLVESGGGLVQAGGSLRLSCAASGDIFSRYMGWYRQAPGKERELVAAITRGGVSTYYADSVKGRFTISRDNAKNTVYLQMNSLKPEDTAVYYCATGRPVYYVASYDYDYWGQGTQVTVSS	low polyreactivity
QVQLVESGGGLVQAGGSLRLSCAASGRTFTVYAMGWYRQAPGKEREFVAAITERGGSTYYADSVKGRFTISRDNAKNTVYLQMNSLKPEDTAVYYCAAVYYWRPGWYVRFDYWGHGTQVTVSS	low polyreactivity
QVQLVESGGGLVQAGGSLRLSCAASGRNFVAYTMGWSRQAPGKERELVAAIRIIGGSTYYADSVKGRFTISRDNAKNTVYLQMNSLKPVDTAVYFCDTPYAYPGTVQYAGYNYWGQGTQVTVSS	high polyreactivity
QVQLVESGGGLVQAGGSLRLSCAASGSIWHKAMGWYRQAPGKERELVASSTNYADSVKGRITISRDNAKNTVYLQMNSLKPEDTAVYYCALEQGVNRNHDYWGQGTQVTVSS	low polyreactivity
QVQLVESGGGLVQAGGSLRLSCAASGITFYEYAMGLYRKAPGKERELVAAISDRGGSTYYADSVKGRFTISRDNSKNTVYLQLNSLKPEDTAVYYCAGRNTPAQLDYWGQGTQVTVSS	low polyreactivity
QVQLVDSGGGLVQAGGSLRLIFAASGITQPYYAMGWYRQAPGKERELVAGISSRGGSTYYADSVKGRFTISRDNAKNTVYLQMNSLIPEDTAVYYCAAKVASTRLGPAYGYWGQGTQVTLSS	high polyreactivity
QVQHVESGGGLVQAGGSLRLSCAASGRIFGKNDMGWYRQAPGNERELVAAITTSGGSTYYADSVKGRFTISRYNAKNTVYLQMNSLKPEDTAVYYCNAAFQNKGYIRKYKYDYWGQGTQVTVSS	low polyreactivity
QVQLEESGGGLVQAGGSLRLSCAASGITFLNYAMGWYRQAPGKERELVAAISWSGGRTYYADSVKGRFTISRDNAKNTVYLQMNSLKPEDTAVYYCAVRGSWYSEHNYWGQGTQVTVSS	high polyreactivity
QVQLVESGGGLVQAGGSLRLSCAASGLTISYYAMGRYRQAPGKERELVAAISTDSSTNYADSVKGRFTISRDNAKNTVYLQMNSLKPEDTAVYYCAAVPRGTQCAMDYWGQGTQVTVSS	low polyreactivity
QVQLVESGGGLDQAGGSLRLSCAASGRILRGYVMGWYRQAPGKERELVATITGRGGSTYYADSVKGRFTISRDNAKNSVYLQMNSLKPEDPAVYYCNKDGYPYFGRSESWGQGPQVTVSS	low polyreactivity
QVQLVESGGGLVQAGGSLRLSCAASGRIFNRNAMGWYRQPPGKERELGAAISRSGSRTYYADSVKWRFTISRDNAKNTVYLQMNSLKPEDTAVYYCAVSGYSPYLYRYGYWGQGTQETVSS	high polyreactivity
QDQLVESGGGLVQAGGSLRLSCAASGFTFSRYAMGWYRQAPGKERELVAAINYSGGSTYYADSVKGRFTISRDNAKNTVYLQMNSLKPEDTAVYYCATGGTKPAYKGHYYWGQGTQVTVSS	low polyreactivity
QVQLVESGGGLVQAGGSLRLSCAASGSTFGYYTMGWYRQAPGKERELVASISWSGASTHYADSVKGRFTISRDNAKNTVYLPMNRLKPEDTAVYYCAADSYPAYLGFVGFDYWGQGTQVTVSS	low polyreactivity
QVQLVESGGGLVQAGGSLRLSCAASGIIFIHYAMGWYRQAPGKERELVAAITSGGSTNYADSVKGRFTISRDNAKNTVYLQMNSLKPEDTAVYYCNAEPVASYYRVSDYEYWGQGTQVTVSS	low polyreactivity
QVQLVESGGGLVQAGGSLRLSCAASGSIFYENAMGWYRQAPGKERELVAAIRDSGGSTYYADSVKGRFTISRDNAKNTVYLQMNSLKPEDTAVYYCNAVPVYYDYDYWGQGTQVTVSS	low polyreactivity
QVQLVESGGGLVQAGGSLRLSCAASGSTFYPYAMGWYRQAPGKERELVAAISRIGSRTYYADSVKGRFTISRDNAKNTVYLQMNSLKPEDTAVYYCNASYVLTGQRYGYWGQGTQVTVSS	low polyreactivity
QVQLVESVGGLVQAGGSLRLSCAASGITFAWYALGWYRQAPGKERELVAAITWSGDSTYYADSVKGRFTISRDNAKNTVYLQMNSLKPEDTAVYYCAAAYFSSGYKYYYWGQGTQVTVSS	high polyreactivity
QVQLVESGGGLVQAGGSLRLSCAASGRIYCKYAMGRYRQAPGKERELVAGISRGAGRTYYADSVKGRFTISRDNAKNTVYLQMNSLKPADTAVSYCAAVPSYHSTSPFYYWGQGTQVTVSS	high polyreactivity
QVQLVESGGGLVQAGGSLRLSCAASGRIFPVNAMGWYRQAPGKERELVATISRGGNTYYADSVKGRFTISRDNAKNTVYLQMNSLKPEDTAVYYCNVDRGNPVPPSEYWGQGTQVTVSS	low polyreactivity
QVQLVESGGGLVQAGGSLRLSCAASGRIFRKNAMGWYRQAPGKERELVAAITSSGNTYYADSVKGRFTISRDNAKNTVYFQMNSLKPEDTAVYYCAARLKWLNRYGYDYWGQGTQVTVSS	low polyreactivity
QVQLVESGGGLVQAGGSLRLSCAASGLTFWSYAMGWYRQAPGKERELVAAISSGGRTYYADSVKGRFTISRDNAKNTVYLQMNSLKPEDTAVYYCNARSRRGPTKDDYWGQGTQVTVSS	high polyreactivity
